8 molecules from patent US20130336951A1 (CENTRE FOR ADDICTION AND MENTAL HEALTH, published 2013) can be followed below.

The labels stand for the following.
B1: GST-GluR2 NTa4 (K172-D221) (other, UniProt P19491 172-221, looked up)
chain: KWQVTAINVGNINNDKKDETYRSLFQDLELKKERRVILDCERDKVNDIVD
notes: range 172-221; also called GluR2NT1-4; not shown: glutathione S-transferase (GST) encoded by vector pGEX-4T3
B2: GST-GluR2 NTc (L422-E545) (other, UniProt P19491 422-545, looked up)
chain: LESPYVMMKKNHEMLEGNERYEGYCVDLAAEIAKHCGFKYKLTIVGDGKYGARDADTKIWNGMVGELVYGKADIAIAPLTITLVREEVIDFSKPFMSLGISIMIKKPQKSKPGVFSFLDPLAYE
notes: range 422-545; also called GST-GluR2NT3; GluR2NT3; not shown: glutathione S-transferase (GST) encoded by vector pGEX-4T3
B3: GST-GluR2 NTa1 (V22-F71) (other, UniProt P19491 22-71, looked up)
chain: VSSNSIQIGGLFPRGADQEYSAFRVGMVQFSTSEFRLTPHIDNLEVANSF
notes: range 22-71; also called GluR2NT1-1; not shown: glutathione S-transferase (GST) encoded by vector pGEX-4T3
B4: p53, endogenous protein of rat hippocampus (other, UniProt P10361 1-391, looked up)
chain: MEDSQSDMSIELPLSQETFSCLWKLLPPDDILPTTATGSPNSMEDLFLPQDVAELLEGPEEALQVSAPAAQEPGTEAPAPVAPASATPWPLSSSVPSQKTYQGNYGFHLGFLQSGTAKSVMCTYSISLNKLFCQLAKTCPVQLWVTSTPPPGTRVRAMAIYKKSQHMTEVVRRCPHHERCSDGDGLAPPQHLIRVEGNPYAEYLDDRQTFRHSVVVPYEPPEVGSDYTTIHYKYMCNSSCMGGMNRRPILTIITLEDSSGNLLGRDSFEVRVCACPGRDRRTEEENFRKKEEHCPELPPGSAKRALPTSTSSSPQQKKKPLDGEYFTLKIRGRERFEMFRELNEALELKDARAAEESGDSRAHSSYPKTKKGQSTSRHKKPMIKKVGPDSD
B5: Glyceraldehyde 3-phosphate-dehydrogenase (GAPDH), endogenous protein of rat hippocampus (enzyme)
chain: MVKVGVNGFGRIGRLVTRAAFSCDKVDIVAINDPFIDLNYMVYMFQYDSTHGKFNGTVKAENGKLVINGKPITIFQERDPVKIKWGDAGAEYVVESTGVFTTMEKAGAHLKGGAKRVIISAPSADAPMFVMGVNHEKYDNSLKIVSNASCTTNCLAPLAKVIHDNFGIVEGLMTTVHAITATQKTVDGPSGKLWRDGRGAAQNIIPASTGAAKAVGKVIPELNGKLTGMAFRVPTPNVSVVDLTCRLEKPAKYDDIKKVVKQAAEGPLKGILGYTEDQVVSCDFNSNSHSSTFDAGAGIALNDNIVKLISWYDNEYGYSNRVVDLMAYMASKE
notes: Native protein in rat hippocampal extracts, primary rat hippocampal neurons and rat brain
B6: GST-GluR2 NTa5 (Q222-S271) (other, UniProt P19491 222-271, looked up)
chain: QVITIGKHVKGYHYIIANLGFTDGDLLKIQFGGANVSGFQIVDYDDSLVS
notes: range 222-271; also called GluR2NT1-5; not shown: glutathione S-transferase (GST) encoded by vector pGEX-4T3
B7: GST-GluR2 NTa2 (A72-T121) (other, UniProt P19491 72-121, looked up)
chain: AVTNAFCSQFSRGVYAIFGFYDKKSVNTITSFCGTLHVSFITPSFPTDGT
notes: range 72-121; also called GluR2NT1-2; not shown: glutathione S-transferase (GST) encoded by vector pGEX-4T3
B8: GST-GluR2 NTb (K272-I421) (other, UniProt P19491 272-421, looked up)
chain: KFIERWSTLEEKEYPGAHTATIKYTSALTYDAVQVMTEAFRNLRKQRIEISRRGNAGDCLANPAVPWGQGVEIERALKQVQVEGLSGNIKFDQNGKRINYTINIMELKTNGPRKIGYWSEVDKMVVTLTELPSGNDTSGLENKTVVVTTI
notes: range 272-421; also called GST-GluR2NT2; GluR2NT2; not shown: glutathione S-transferase (GST) encoded by vector pGEX-4T3

In experiment [1] the target is B5. The experiment can be described thus: GST pull-down, Western blot for GAPDH.
The target in experiment [2] is T1, [35S]-GAPDH probe (in vitro translated, [35S]-methionine labelled GAPDH) (Homo sapiens, UniProt P04406 1-335, limits assumed, [35S]-methionine labelled). The experiment can be described thus: blot overlay with in vitro translated probe.
Experiment [3] addresses T1, [35S]-GAPDH probe (in vitro translated, …). The experiment can be described thus: repeated in vitro binding assay with in vitro translated probe.
Experiment [4] addresses B5. The experiment can be described thus: repeated GST pull-down from rat hippocampal tissue.
The next experiment deals with T2, GST-GluR2NT (V22-E545) (Rattus norvegicus (Rat), UniProt P19491 22-545).
T2 construct: Bacterial GST fusion on glutathione-Sepharose; not shown: glutathione S-transferase (GST) encoded by vector pGEX-4T3
As to the kind of experiment: GST pull-down, Western blot for p53 (FIG. 24A). For orientation: Immunoblotting shows a protein as a band on a membrane.

A further experiment concerns the target T3, GST alone (UniProt P08515 1-218 = GST).
T3 construct: Negative control; also called GST peptide
The experiment can be described thus: GST pull-down, Western blot for GAPDH.

The target of experiment [5] is B8. The experiment can be described thus: repeated GST pull-down from rat hippocampal tissue.
In experiment [6] the target is B2. The experiment can be described thus: repeated GST pull-down from rat hippocampal tissue.
The next experiment addresses T4, GST-GluR1NT (A19-E538) (UniProt P19490 19-538).
T4 construct: range 19-538; Control fusion protein; not shown: glutathione S-transferase (GST) encoded by vector pGEX-4T3
As to the kind of experiment: GST pull-down from rat hippocampal extracts, Coomassie-stained SDS-PAGE.

T1 sequence (P04406 whole entry): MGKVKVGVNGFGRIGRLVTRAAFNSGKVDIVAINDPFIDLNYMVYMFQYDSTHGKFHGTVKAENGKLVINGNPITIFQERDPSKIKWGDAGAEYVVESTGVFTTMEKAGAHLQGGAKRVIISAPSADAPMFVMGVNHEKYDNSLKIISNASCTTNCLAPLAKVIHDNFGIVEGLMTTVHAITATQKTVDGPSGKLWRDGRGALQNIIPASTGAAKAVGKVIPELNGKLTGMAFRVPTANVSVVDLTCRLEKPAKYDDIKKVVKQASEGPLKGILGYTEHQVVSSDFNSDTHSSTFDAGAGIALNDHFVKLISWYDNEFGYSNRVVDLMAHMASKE
T3 sequence (P08515 whole entry): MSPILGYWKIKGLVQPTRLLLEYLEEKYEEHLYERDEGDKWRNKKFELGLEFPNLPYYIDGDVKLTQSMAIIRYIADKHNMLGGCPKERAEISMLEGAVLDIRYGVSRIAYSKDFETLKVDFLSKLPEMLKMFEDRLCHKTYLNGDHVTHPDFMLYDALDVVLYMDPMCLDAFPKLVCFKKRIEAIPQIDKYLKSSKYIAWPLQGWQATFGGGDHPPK

In the case of B1, the binding result in [1] and in experiment [2] was “no binding” throughout. Take B2: the binding result in [3] was “no binding”. On to B3, for which the binding result in experiment [2] and in experiment [4] was “no binding” in each case. Regarding B4, the binding result with GST-GluR2NT (V22-E545) was “no binding”. For B5, the binding result (in the experiment with GST alone; in experiment [5]; in [6]; with GST-GluR1NT (A19-E538)) was “no binding” each time. For B6, the binding result in experiment [1] and in [2] was “no binding” each time.

Take B7: the binding result in experiment [1] and in [2] was “no binding” in each case. On to B8, for which, in [3], the binding result is “no binding”.
